2 molecules from patent US20130316022A1, “METHOD TO ENHANCE ANTIMICROBIAL ACTIVITY BY INCREASING pH” (University of Iowa Research Foundation, priority 2012, published 2013) can be followed below.

For test [1], the system named is S. aureus Xen29. Put plainly: S. aureus luminescence antibacterial assay, effect of pH. It counts as cell-based. How it is done:
(§1) To assess the effect of pH on the antibacterial activity of lysozyme and lactoferrin, we used a luminescence assay of bacterial viability that has been described previously ^15. The bacteria used were S. aureus Xen29 (Caliper LifeSciences Bioware™, Hopkinton, Mass.) and E. coli DH5a (GIBCO BRL, Life Technologies, Grand Island, N.Y.) expressing a luminescence plasmid pCGLS1. E. coli were grown in Luria-Bertani medium containing ampicillin (100 μg/ml, to maintain the plasmid) at 30° C. with shaking. For S. aureus, kanamycin 10 μg/ml was used instead of ampicillin. Log phase bacteria were centrifuged and resuspended in 1% Tryptic Soy Broth medium with 10 mM HEPES titrated to pH values from 6.8-8.0. E. coli (5×10^6 CFU) or S. aureus (5×10^5 CFU) were incubated with the indicated concentrations of lysozyme or lactoferrin in 96-well plates (Optiplate-96, Perkin Elmer, Waltham, Mass.) in a total volume of 120 μl. Controls were the same conditions in the same plates, but without lysozyme or lactoferrin. After incubation at 30° C. for the indicated times, luminescence was measured with a luminometer (Spectra Max L, Molecular Devices, Sunnyvale, Calif.) and was reported as relative light units (RLU). A previous study^16 determined that reductions in luminescence have an excellent correlation with a decrease in CFU.

The subject of test [2] is E. coli DH5a expressing luminescence plasmid pCGLS1. Put plainly: E. coli luminescence antibacterial assay, effect of pH. The test is classed as cell-based. The note with it: pH values from 6.8-8.0 (FIG. 8). As for the experimental part:
as §1

B1: lactoferrin (protein, UniProt P02788 20-710, looked up)
Lactotransferrin: GRRRSVQWCAVSQPEATKCFQWQRNMRKVRGPPVSCIKRDSPIQCIQAIAENRADAVTLDGGFIYEAGLAPYKLRPVAAEVYGTERQPRTHYYAVAVVKKGGSFQLNELQGLKSCHTGLRRTAGWNVPIGTLRPFLNWTGPPEPIEAAVARFFSASCVPGADKGQFPNLCRLCAGTGENKCAFSSQEPYFSYSGAFKCLRDGAGDVAFIRESTVFEDLSDEAERDEYELLCPDNTRKPVDKFKDCHLARVPSHAVVARSVNGKEDAIWNLLRQAQEKFGKDKSPKFQLFGSPSGQKDLLFKDSAIGFSRVPPRIDSGLYLGSGYFTAIQNLRKSEEEVAARRARVVWCAVGEQELRKCNQWSGLSEGSVTCSSASTTEDCIALVLKGEADAMSLDGGYVYTAGKCGLVPVLAENYKSQQSSDPDPNCVDRPVEGYLAVAVVRRSDTSLTWNSVKGKKSCHTAVDRTAGWNIPMGLLFNQTGSCKFDEYFSQSCAPGSDPRSNLCALCIGDEQGENKCVPNSNERYYGYTGAFRCLAENAGDVAFVKDVTVLQNTDGNNNEAWAKDLKLADFALLCLDGKRKPVTEARSCHLAMAPNHAVVSRMDKVERLKQVLLHQQAKFGRNGSDCPDKFCLFQSETKNLLFNDNTECLARLHGKTTYEKYLGPQYVAGITNLKKCSTSPLLEACEFLRK
notes: endogenous ASL antimicrobial protein, tested at 4 mg/ml
Take B1: the “relative luminescence compared to control” value in test [1] (pH 6.8, 4 mg/ml lactoferrin, 60 minutes) amounted to 85.0 ± 9.3; in test [1] (pH 7.2, 4 mg/ml lactoferrin, 60 minutes), 73.6 ± 8.2; in test [1] (pH 7.6, 4 mg/ml lactoferrin, 60 minutes) it was 60.8 ± 4.8; in test [1] (pH 8.0, 4 mg/ml lactoferrin, 60 minutes) it was 39.8 ± 5.0. Besides, the “effect of pH on E. coli killing” value in test [2] is “increasing pH increased S. aureus and E. coli killing”.

B2: lysozyme (protein, UniProt P61626 19-148, looked up)
Lysozyme C: KVFERCELARTLKRLGMDGYRGISLANWMCLAKWESGYNTRATNYNAGDRSTDYGIFQINSRYWCNDGKTPGAVNACHLSCSALLQDNIADAVACAKRVVRDPQGIRAWVAWRNRCQNRDVRQYVQGCGV
notes: endogenous ASL antimicrobial protein, tested at 1.25 mg/ml
Regarding B2, the “relative luminescence compared to control” value in test [1] (pH 6.8, 1.25 mg/ml lysozyme, 30 minutes) is reported as 49.1 ± 3.4; in test [1] (pH 7.2, 1.25 mg/ml lysozyme, 30 minutes), 43.5 ± 1.5; in test [1] (pH 7.6, 1.25 mg/ml lysozyme, 30 minutes) it was 30.6 ± 2.3; in test [1] (pH 8.0, 1.25 mg/ml lysozyme, 30 minutes), 23.4 ± 0.8. Also, the “effect of pH on E. coli killing” value in test [2] is “increasing pH increased S. aureus and E. coli killing”.
